Results as given in patent publication US20260217797A1 (Takeda / Millennium, published 2026).

target: SARS-CoV-2 Variant B.1.17 N501Y S1-His (SARS-CoV-2, UniProt P0DTC2 16-685); assay: Octet BLI, IgG, monovalent

| Binder | Kd |
| --- | --- |
| A-20 (antibody, V domains shown) VH: QVQLVESGGGVVQPGRSLRLSCAASGFTFSNFAMHWVRQAPGKGLEWVAVILYDGINKYYADSVKGRFTISRGNSKNTLSLQMNSLRAEDTAVYYCARAQNYYDRSGTLQLDAFDIWGQGTLVTVSS VL: AIQMTQSPSSLSASVGDRVTITCRASQGIRNDLGWYQQKPGKAPKLLIYAASSLQSGVPSRFSGSGSGTDFTLTISSLQPEDFATYYCLQDYNYPLTFGGGTKVEIK | 2.57 nM |
| A-20.1 (antibody, V domains shown) VH: QVQLVESGGGVVQPGRSLRLSCAASGFTFSNFAMHWVRQAPGKGLEWVAVILYDGINKYYADSVKGRFTISRGNSKNTLSLQMNSLRAEDTAVYYCARAQNYYDRSGTLQLDAFDIWGQGTLVTVSS VL: AIQMTQSPSSLSASVGDRVTITCVASQGIRNDLGWYQQKPGKAPKLLIYEASSLESGVPSRFSGSGSGTDFTLTISSLQPEDFATYYCLQDYNYPLTFGGGTKVEIK | 0.604 nM |
| A-23 (antibody, V domains shown) VH: EVQLVESGGGLVQPGRSLRLSCAASGFTFDDYAMHWVRQAPGKGLEWVSGISWNSGTIGYADSVKGRFIISRDNAKNSLYLQMNSLRGEDMALYYCGKDRKREDPSLGGMDVWGQGTTVTVSS VL: SYVLTQPPSVSVAPGQTARITCGGNNIGSKSVHWYQQKPGQAPVLVVYDDTDRPSGIPERFSGSNSGNTATLTISRVEAGDEADYYCQVWDSSSDHYVFGTGTKVTVL | 1.2 nM |
| A-23.2 (antibody, V domains shown) VH: EVQLVESGGGLVQPGRSLRLSCAASGFTFDDYAMHWVRQAPGKGLEWVSGTSWNSGTIGYADSVKGRFIISRDNAKNSLYLQMNSLRGEDMALYYCVKDRKREDPSLGGMDVWGQGTTVTVSS VL: SYVLTQPPSVSVAPGQTARITCGGNNIGSKSVHWYQQKPGQAPVLVVYDDTDRPSGIPERFSGSNSGNTATLTISRVEAGDEADYYCQVWDVSSDSYVFGTGTKVTVL | 0.242 nM |
| A-23.3 (antibody, V domains shown) VH: EVQLVESGGGLVQPGRSLRLSCAASGFTFDDYAMHWVRQAPGKGLEWVSGTSWNSGTIGYADSVKGRFIISRDNAKNSLYLQMNSLRGEDMALYYCVKDRKREDPSLGGMDVWGQGTTVTVSS VL: SYVLTQPPSVSVAPGQTARITCGGNNIGSKSVHWYQQKPGQAPVLVVYDDTDRPSGIPERFSGSNSGNTATLTISRVEAGDEADYYCQVWDSSSDDYVFGTGTKVTVL | 0.286 nM |
| A-23.1 (antibody, V domains shown) VH: EVQLVESGGGLVQPGRSLRLSCAASGFTIDDYAMHWVRQAPGKGLEWVSGISWNGGTIGYADSVKGRFIISRDNAKNSLYLQMNSLRGEDMALYYCGKDRKREDPSLGGMDVWGQGTTVTVSS VL: SYVLTQPPSVSVAPGQTARITCLGNNIGSKSVHWYQQKPGQAPVLVVYDDTDRPSGIPERFSGSNSGNTATLTISRVEAGDEADYYCQVWDSESDHYVFGTGTKVTVL | 0.512 nM |

target: SARS-CoV-2 RBD-mFc (SARS-CoV-2, UniProt P0DTC2 319-541); assay: Octet BLI, IgG, avid

| Binder | Kd |
| --- | --- |
| A-2 (antibody, V domains shown) VH: EVQLVESGGGLIQPGGSLRLSCAASGFTVSSNYMSWVRQAPGKGLEWVSIIYSGGSTYYADSVKGRFTISRDNSKNTLYLQMNSLRAEDTAVYYCARAPSGEYGDPIYYWGQGTLVTVSS VL: QSVLTQPPSASASLGASVKLTCTLSSGHSTYTIAWHQQQPEKGPRYLMKLNSDGSHSKGDGIPDRFSGSSSGAERYLTISSLQSEDEADYYCQTWGTGNHWVFGGGTKLTVL | 0.125 nM |
| A-3 (antibody, V domains shown) VH: EVQLLESGPGLVKPSETLSLTCTVSGGSINSRSYYWGWIRQPPGKGLEWIGSIYYSGSTYYNPSLKSRVTISVDTSKNQFSLKLSSVIAADTAVYFCARLEQWELPGGWFDPWGQGTLVTVSS VL: NFMLTQPHSVSESPGKTVTISCTRSSGSIASNYVQWYQQRPGSAPTTVIYEDNQRPSGVPDRFSGSIDISSNSASLTISGLKTEDEADYSCQSSDSSNVVFGGGTKLTVL | 0.141 nM |
| A-5 (antibody, V domains shown) VH: QVQLVESGGGLIQPGESLRLSCAASEFIVSRNYMSWVRQAPGKGLEWVSVIYSGGNTYYADSVKGRFTISRDNSKNTLYLQMNSLRAEDTAVYYCARDLRGPGCFDFWGQGTTVTVSS VL: DIQVTQSPSSLSASVGDRVTITCQASQDISNFLNWYQQKPGKAPKLLIYDASNLETGVPSRFSASGSGTEFTFTISSLQPEDIATYYCQQYDNLRVTFGGGTKLEIK | 0.179 nM |
| A-13 (antibody, V domains shown) VH: QVQLVQSGAEVKKPGASVKVSCKASGYTFTDYYMHWVRQAPGQGLEWMGWINPNSGGTNSAQKFQGRVTMTRDTSINTAYMELSRLRSDDTAVYFCARDSHLAMVRGDFEYWGQGTLVTVSS VL: QSVLTQPASVSGSPGQSITISCTGTSSDVESYNVVSWYQQHPGKAPKLMIYEVSKRPSGVSHRFSGSKSGNTASLTISGLQAEDESDYYCCSYAGNSTWVFGGGTKLTVL | 0.0959 nM |
| A-15 (antibody, V domains shown) VH: QVQLVQSGAEVKKPGASVKVSCKASGYTSSSYYMHWVRQAPGQGPEWMGIINPGGTSTSYAQKFQGRVTMTRDTSTSTVYMELSSLRSEDTAVYYCAIGYCSTTSCRWGDAFDIWGQGTMVTVSS VL: DIQVTQSPSSLSASVGDRVTITCRASQSISSYLNWYQQKPEKAPNLLIYAASSLQSGVPSRFSGSGSGTDFTLTISSLQPEDFATYYCQQSSTTPPTFGQGTKVEIK | 0.212 nM |
| A-19 (antibody, V domains shown) VH: QVQLVQSGAEVKKPGESLKISCKGSGYSFTSYWIAWVRQMPGKGLEWMGIIYPGDSDTSYSPSFQGQVTISADKSISTAYLQWSSLKASDTAMYYCARGPNKYNWFDTWGQGTLVTVSS VL: not shown | 0.129 nM |
| A-1 (antibody, V domains shown) VH: EVQLVESGGGVVQPGGSLRLSCAASGFAFSTYWMHWVRQAPGKGLVWVSRINGDGSGTNYADSVKGRFTISRDNAKSTLYLQMNSLRTEDTAVYYCTRTAGRGAYDFGRFDPWGQGTLVTVSS VL: DIVLTQTPLSLPVTPGEPASISCRSSQSLLHSNGYNYLDWYLQKAGQSPQLLVFLGSNRASGVPDRFSGSASGTDFTLKISRVEAEDVGVYYCMQALQIPITFGQGTRLEIK | 0.089 nM |
| A-11 (antibody, V domains shown) VH: EVQLVESGAEVKKPGSSVMVSCKASGGTFSRYAISWVRQAPGQGLEWMGGIIPVFGIVHYAQKFQGRVTITADKSTSTAYMELSSLRSEDTAAYYCARDRQQQPSPYYYHGMDVWGQGTTVTVSS VL: DIRLTQSPSSLSASVGDRVTITCQASQDISNYLNWYQQKPGKAPKLLIYDASNLETGVPTRFSGSGSGTDFTFTISSLQPEDIATYYCQQYDNLPLFGGGTKVEIK | 0.173 nM |
| A-12 (antibody, V domains shown) VH: EVQLLESGGGLVQPGGSLRLSCAVSGLTVSSNYMSWVRQAPGKGLEWVSLIYSGGSTYYADSVKGRFTISRDNSKNTLYLQMNSLRAEDTAVYYCARGELGIPYGMDVWGQGTTVTVSS VL: QSVLTQPPSVSAAPGQKVTISCSGGSSNVGDNFVSWYQQLPGTAPKLLIYDNNRRPSGIPDRFSGSKSGTSATLGITGLQTGDEADYYCGTWDSSLSAGVFGGGTKVTVL | 0.151 nM |
| A-10 (antibody, V domains shown) VH: QVQLVQSGGGVVQPGRSLRLSCAASGFTFSSYGMHWVRQAPGKGLEWVAVISYDGSNKYYTDSVKGRFTISRDNSKNTLYLQMNSLRAEDTAVYYCAKDLPREVYYDILTGYDNPYYYYGMDVWGQGTTVTVSS VL: not shown | 0.0931 nM |
| A-14 (antibody, V domains shown) VH: EVQLVESGGGVVQPGRSLRLSCAASGFTFSTYGMHWVRQAPGKGLEWVAVIWYDGSNKYYADSVKGRFTISRDNSKNTLYLQMNSLRAEDTAVYYCARSVDGDYLEYFQHWGQGTLVTVSS VL: QPVLTQPRSVSGSPGQSVTISCTGTSSDVGGYNYVSWYQQHPGKAPKLMIYDVSKRPSGVPDRFSGSKSGNTASLTISGLQAEDEADYYCCSYAGGYTNYVFGTGTKLTVL | 0.158 nM |
| A-4 (antibody, V domains shown) VH: EVQLVESGGGLIQPGGSLTLSCAASGFTVSSNYMNWVRQAPGKGLEWVSVIYSGGSTYYADSVKGRFTISRDNSKNTLYLQMNSLRAEDTAVYYCAREVYSYFDYWGQGTLVTVSS VL: DIQLTQSPSFLSASVGDRVTITCRASQGISSYLAWYQQKPGKAPKLLIYAASTLQSGVPSRFSGSGSGTEFTLTISRLQPEDLATYYCQQLNSYPPHTFGQGAKLEIK | 0.663 nM |
| A-7 (antibody, V domains shown) VH: EVQLVESGAEVRKPGASVKVSCKASGYTFTFYYIHWVRQAPGQGLEWMGWISPISGATNYAQTFQGRVTMTRDTSITTAYMELSSLTSDDTAVYYCAREKYYDSSGSSDYWGQGTLVTVSS VL: QPVLTQPPSVSAAPGQNVTIFCSGSSSNIGNNYVSWYQQLPGPAPKLLIYENNKRPSGIPDRFSGSKSGTSATLGITGLQTGDEADYYCGTWESSLSAPRVFGSGTKLTVL | 0.0941 nM |
| A-8 (antibody, V domains shown) VH: EVQLLESGGGLVQPGGSLRLSCAASGFTFSSYAMSWVRQAPGKGLEWVSAISGSGNSTSYADSVKGRFTLSRDNSKNTLYLQMNSLRAEDTAIYYCAKGLGTRSFNWGAFDYWGQGTLVTVSS VL: DIRVTQSPSSLSASVGDRVTITCRASQGISYSLAWYQQKPGKAPKLLLYAASNLESGVPSRFSGSGSGTDYTLTVSSLQPEDFATYYCQQYYSTPWTFGQGTKVEIK | 0.106 nM |
